Reference: US20180022822A1, “NOVEL ANTI-FIBROBLAST ACTIVATION PROTEIN (FAP) BINDING AGENTS AND USES THEREOF” (Mabimmune Diagnostics AG, priority 2016, published 2018)

How the values were obtained:
[1] = system: directly coated FAP peptides mixture (cFAP); test: direct ELISA on coated mixture of FAP peptides; type: binding, human; conditions: peptides 378-392, 622-636, 721-736
Method: (§1) ELISA assays were performed with varying antibody concentrations to validate the binding of the exemplary antibodies of the present invention to FAP and to be able to determine their half maximal effective concentration (EC50). For the exemplary recombinant human NI-206-18H2, NI-206-20A8, NI-206-6D3, ‘NI-206-14C5, NI-206-34C11, NI-206.82C2, NI-206.59B4, NI-206.22F7, NI-206.27E8, NI-206.12G4 and NI-206.17A6 antibodies, 96-well microplates (Costar, Corning, USA) were coated with FAP, with a mixture of the 3 peptides or with BSA (Sigma-Aldrich, Buchs, Switzerland) diluted to a concentration of 5 μg/ml in carbonate ELISA coating buffer (15 mM Na2CO3, 35 mM NaHCO3, pH 9.4) for the direct ELISA. For the capture ELISA, the microplates were coated with mouse anti-His monoclonal antibody (Clontech) diluted to a concentration of 3 μg/ml in PBS, the plates were then blocked, FAP or BSA were diluted to a concentration of 2 μg/ml in PBS and added to the plates to be captured. The binding efficiency of the antibodies was then tested.
(§2) The EC50 values were estimated by a non-linear regression using GraphPad Prism (San Diego, USA) software. […] The binding of NI-206.12G4 towards sFAP was not tested.

[2] = target: T1, recombinant human FAP (sFAP, FAP) versus CD26 and unrelated human antigens (A-N) (Homo sapiens, UniProt Q12884); test: binding specificity ELISA against FAP versus unrelated human antigens; conditions: detection antibody at 20, 4 and 0.8 nM
T1 sequence (Q12884 26-760 limits assumed): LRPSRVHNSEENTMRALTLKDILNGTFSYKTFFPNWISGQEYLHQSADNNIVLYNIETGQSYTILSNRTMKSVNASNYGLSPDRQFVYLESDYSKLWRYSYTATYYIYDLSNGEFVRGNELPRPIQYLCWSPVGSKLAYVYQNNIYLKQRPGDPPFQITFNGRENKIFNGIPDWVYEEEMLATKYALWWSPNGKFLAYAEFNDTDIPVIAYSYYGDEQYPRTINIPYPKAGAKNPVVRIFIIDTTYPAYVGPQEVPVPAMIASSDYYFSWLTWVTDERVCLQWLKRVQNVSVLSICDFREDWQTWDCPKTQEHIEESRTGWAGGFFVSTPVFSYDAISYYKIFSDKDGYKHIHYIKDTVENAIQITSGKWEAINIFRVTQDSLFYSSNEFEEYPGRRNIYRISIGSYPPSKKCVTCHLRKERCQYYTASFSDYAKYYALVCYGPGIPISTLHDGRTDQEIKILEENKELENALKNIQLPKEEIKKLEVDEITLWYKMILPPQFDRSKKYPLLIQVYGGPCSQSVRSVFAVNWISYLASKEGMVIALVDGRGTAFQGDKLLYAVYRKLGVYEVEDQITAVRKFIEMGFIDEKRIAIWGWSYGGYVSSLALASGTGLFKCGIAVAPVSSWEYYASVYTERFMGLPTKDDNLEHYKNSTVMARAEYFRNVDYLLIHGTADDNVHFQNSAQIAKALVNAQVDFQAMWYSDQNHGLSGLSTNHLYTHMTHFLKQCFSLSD
Method: A mouse anti-6×-histidine tag antibody (Clonetech) was coated at a concentration of 3 μg/ml in PBS to a 96 well ELISA plate, the plates were then blocked with 5% BSA in PBS, and enzymatically active recombinant human FAP with an N-terminus 6× histidine tag was added to the plates to be captured. The binding efficiency of NI-206.82C2, NI-206.18H2, NI-206.20A8 and NI-206.6D3 (at 20 nM, 4 nM, and 0.8 nM) against sFAP and of NI-206.18H2, NI-206.20A8 and NI-206.6D3 against FAP as well was then tested by 1 hour incubation, followed by washing with PBS and detection with an HRP-labelled goat anti-human antibody (Jackson Immunoresearch) using a colormetric assay. To assess NI-206.82C2, NI-206.18H2, NI-206.20A8 and NI-206.6D3 binding other targets, recombinant human CD26 (only in case of NI-206.82C2) and fourteen other unrelated recombinant human proteins (A-N) were individually added to a 96-well ELISA plate in triplicate, and the binding efficacy of NI-206.82C2 was evaluated. (FIG. 7A to D)

captured FAP (sFAP) = target: T2, captured FAP (sFAP) (Homo sapiens, UniProt Q12884); test: capture ELISA, FAP captured via his-tag with coated anti-His antibody; type: binding; conditions: ELISA, varying antibody concentrations
T2 sequence (Q12884 1-760): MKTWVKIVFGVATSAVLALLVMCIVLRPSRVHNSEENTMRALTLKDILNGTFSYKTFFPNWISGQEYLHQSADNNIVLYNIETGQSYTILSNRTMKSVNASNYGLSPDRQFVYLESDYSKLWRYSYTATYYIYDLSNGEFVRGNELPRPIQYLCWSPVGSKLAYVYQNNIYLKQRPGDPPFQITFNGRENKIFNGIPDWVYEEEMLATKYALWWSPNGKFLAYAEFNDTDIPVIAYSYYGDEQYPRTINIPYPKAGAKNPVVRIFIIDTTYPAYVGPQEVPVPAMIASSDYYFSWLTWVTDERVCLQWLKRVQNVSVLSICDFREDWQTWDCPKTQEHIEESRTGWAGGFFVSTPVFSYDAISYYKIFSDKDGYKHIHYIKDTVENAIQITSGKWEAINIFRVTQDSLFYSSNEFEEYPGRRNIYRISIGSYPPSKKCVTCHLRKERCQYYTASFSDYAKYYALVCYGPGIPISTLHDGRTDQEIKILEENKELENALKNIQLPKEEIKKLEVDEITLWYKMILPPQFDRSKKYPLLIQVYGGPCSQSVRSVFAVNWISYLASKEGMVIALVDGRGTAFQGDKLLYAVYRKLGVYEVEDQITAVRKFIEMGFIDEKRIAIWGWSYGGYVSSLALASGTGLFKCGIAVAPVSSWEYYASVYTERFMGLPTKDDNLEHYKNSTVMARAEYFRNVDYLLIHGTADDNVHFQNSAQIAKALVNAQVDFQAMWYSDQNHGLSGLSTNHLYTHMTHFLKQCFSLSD
Method: as §1, §2

B1: NI-206.18H2: human-derived recombinant anti-FAP antibody; VH SEQ ID NO: 41, VL SEQ ID NO: 43 (antibody, listed as Homo sapiens, V domains shown)
VH: QVQLQESGPRLVKPSETLSLTCTVSGYSISNGYYWGWIRQPPGQGLEWIASVWHSGNTYHNPSLKSRVTILVDTLKNQFSLNLKSVTAADTALYYCARSYTRNDVGAFETWGQGTMVTVSS
VL: SYELTQPPSVSVSPGQTARIACSGDELPKRYAYWYQQKSGQAPVLVMYEDTKRPSGIPERLSGSSSGTVTTLTISGAQVEDEADYYCYSTAPSGNHTFVFGTGTRVTVL
Which “EC50 to the directly coated FAP peptides mixture (cFAP)” value (“EC50” for short) [1] does the source give for B1 here?
The value was “did not show any binding”.

And the “colorimetric ELISA signal against FAP versus panel of unrelated human antigens” value [2]?
The value was “significantly greater”.

What about the “binding to the captured FAP” value (captured FAP (sFAP)) of the same molecule?
Its value is “specifically, strongly and similarly bind”.

B2: NI-206.82C2: human-derived recombinant anti-FAP antibody; VH SEQ ID NO: 2 or 4 (PIMC), VL SEQ ID NO: 6 (antibody, V domains shown)
VH: QVQLQQSGPGLVKPSQTLSLTCAISGDSVSSNSVTWNWIRQSPSRGLEWLGRTYYRSKWYNDYAVSVKGRITINPDTSKNQFYLQLKSVTPEDAAVYYCARDSSILYGDYWGQGTLVTVSS
VL: QAVLTQPSSLSASPGASASLTCTLPSGINVGTYRIFWFQQKPGSPPQYLLSYKSDSDNHQGSGVPSRFSGSKDASANAGILLISGLQSEDEADYYCMIWHSSAWVFGGGTKLTVL
How did the “EC50” value [1] turn out when B2 was run?
The value was “did not show any binding”.

And the “colorimetric ELISA signal against FAP versus panel of unrelated human antigens” value [2]?
Its value is “significantly greater”.

What about the “binding to the captured FAP” value (captured FAP (sFAP)) of the same molecule?
The value was “specifically and strongly binds”.

B3: NI-206.6D3: human-derived recombinant anti-FAP antibody; VH SEQ ID NO: 49, VL SEQ ID NO: 51 (antibody, listed as Homo sapiens, V domains shown)
VH: EVQLVESGGGLVKPGESLRLSCAASGFTFSKAWMNWVRQGPGKGLEWVGRVKSKTDGGTTDYAAPVKGRFTISRDDSKDTVFLQMNSLKTEDTAVYYCSIQFIVVGDRGRDDQYMDVWGKGTTVTVSS
VL: SYVLTQPPSVSVSPGQTARITCSGDALPKQYAFWYQQKPGQAPVIMIYKDNQRPSGIPERFSGSSSGTTVTLTISGVQTEDEADYYCQSADSTNTHVVFGGGTKLTVL
With B3 as the molecule, how does the “EC50” value [1] read?
The value was “did not show any binding”.

And the “colorimetric ELISA signal against FAP versus panel of unrelated human antigens” value [2]?
The value was “significantly greater”.

And the “binding to the captured FAP” value (captured FAP (sFAP))?
The value was “strongly and similarly bind”.
